Reference: paper PMC4432310, “Different Ligands of the TRPV3 Cation Channel Cause Distinct Conformational Changes as Revealed by Intrinsic Tryptophan Fluorescence Quenching*” (The Journal of Biological Chemistry, 2015)

B1: human TRPV3 fused to C-terminal GFP and His8 tag (natural protein, UniProt Q8NET8 1-790, looked up)
chain: MKAHPKEMVPLMGKRVAAPSGNPAILPEKRPAEITPTKKSAHFFLEIEGFEPNPTVAKTSPPVFSKPMDSNIRQCISGNCDDMDSPQSPQDDVTETPSNPNSPSAQLAKEEQRRKKRRLKKRIFAAVSEGCVEELVELLVELQELCRRRHDEDVPDFLMHKLTASDTGKTCLMKALLNINPNTKEIVRILLAFAEENDILGRFINAEYTEEAYEGQTALNIAIERRQGDIAALLIAAGADVNAHAKGAFFNPKYQHEGFYFGETPLALAACTNQPEIVQLLMEHEQTDITSRDSRGNNILHALVTVAEDFKTQNDFVKRMYDMILLRSGNWELETTRNNDGLTPLQLAAKMGKAEILKYILSREIKEKRLRSLSRKFTDWAYGPVSSSLYDLTNVDTTTDNSVLEITVYNTNIDNRHEMLTLEPLHTLLHMKWKKFAKHMFFLSFCFYFFYNITLTLVSYYRPREEEAIPHPLALTHKMGWLQLLGRMFVLIWAMCISVKEGIAIFLLRPSDLQSILSDAWFHFVFFIQAVLVILSVFLYLFAYKEYLACLVLAMALGWANMLYYTRGFQSMGMYSVMIQKVILHDVLKFLFVYIVFLLGFGVALASLIEKCPKDNKDCSSYGSFSDAVLELFKLTIGLGDLNIQQNSKYPILFLFLLITYVILTFVLLLNMLIALMGETVENVSKESERIWRLQRARTILEFEKMLPEWLRSRFRMGELCKVAEDDFRLCLRINEVKWTEWKTHVSFLNEDPGPVRRTDFNKIQDSSRNNSKTTLNAFEEVEEFPETSV
notes: human TRPV3 (transient receptor potential vanilloid 3), full-length; theoretical mass of the monomer printed as 90.6 kDa; A PreScission cleavage site lies between TRPV3 and GFP-His8; The fusion is uncleaved in the FSEC runs; also called hTRPV3-GFP; hTRPV3; source: Sf9 insect cells (baculovirus), detergent-solubilized crude membranes, not purified; not shown: GFP, C-terminal, kept
B2: human TRPV3, detergent-purified, GFP-His tag cleaved off (natural protein, UniProt Q8NET8 1-790, looked up)
chain: B1 chain
notes: human TRPV3 (transient receptor potential vanilloid 3), full-length; theoretical mass of the monomer printed as 90.6 kDa; also called hTRPV3; detergent-purified hTRPV3; source: Sf9 insect cells (baculovirus), purified (GFP trap, PreScission cleavage, SEC) in DDM and CHAPS; not shown: GFP, C-terminal, cleaved; His8, C-terminal, cleaved

Tests used:
[1] = biological target: the molecule itself; assay: SEC; fluorescence detection SEC (FSEC) of detergent-solubilized crude Sf9 membranes on Superose 6 10/300 GL; buffer A (200 mM NaCl, 50 mM Tris, pH 7.5) with DM, DDM or LDAO at ~1.5 x CMC; oligomer judged from the retention volume
[2] = biological target: the molecule itself; assay: SEC; UV detection SEC of hTRPV3 eluted from the GFP trap, Superose 6 10/300 GL; buffer B (100 mM NaCl, 10 mM Tris, pH 7.5) with 0.03% DDM and 0.1% CHAPS

Protein | stoichiometry N [1] | stoichiometry N [2]
B1 | 4 | 
B2 |  | 4
